These results are taken from publication PMC3359286 (2012).

The assay has as its target methemoglobin (Homo sapiens, UniProt P69905). Description: ELISA.

methemoglobin, sequence (P69905 2-142, chain 1 of 2): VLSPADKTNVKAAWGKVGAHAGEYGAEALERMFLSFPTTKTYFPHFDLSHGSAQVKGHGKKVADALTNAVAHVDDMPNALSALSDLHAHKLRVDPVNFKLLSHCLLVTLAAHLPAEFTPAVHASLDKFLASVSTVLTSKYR
methemoglobin, sequence (chain, as listed by the source, chain 2 of 2): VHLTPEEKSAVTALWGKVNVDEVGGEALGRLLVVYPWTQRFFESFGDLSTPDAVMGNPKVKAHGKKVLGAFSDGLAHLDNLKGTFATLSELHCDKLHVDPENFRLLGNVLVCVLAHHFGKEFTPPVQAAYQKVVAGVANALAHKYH

B1: Shr (protein)
chain: QEPLVQSQLVTTVALTQDNRLLVEEIGPYASQSAGKEYYKHIEKIIVDNDVYEKSLEGERTFDINYQGIKINADLIKDGKHELTIVNKKDGDILITFIKKGDKVTFISAQKLGTTDHQDSLKKDVLSDKTVPQNQGTQKVVKSGKNTANLSLITKLSQEDGAILFPEIDRYSDNKQIKALTQQITKVTVNGTVYKDLISDSVKDTNGWVSNMTGLHLGTKAFKDGENTIVISSKGFEDVTITVTKKDGQIHFVSAKQKQHVTAEDRQSTKLDVTTLEKAIKEADAIIAKESNKDAVKDLAEKLQVIKDSYKEIKDSKLLADTHRLLKDTIESYQAGEVSINNLTEGTYTLNFKANKENSEESSMLQGAFDKRAKLVVKADGTMEISMLNTALGQFLIDFSIESKGTYPAAVRKQVGQKDINGSYIRSEFTMPIDDLDKLHKGAVLVSAMGGQESDLNHYDKYTKLDMTFSKTVTKGWSGYQVETDDKEKGVGTERLEKVLVKLGKDLDGDGKLSKTELEQIRGELRLDHYELTDISLLKHAKNITELHLDGNQITEIPKELFSQMKQLRFLNLRSNHLTYLDKDTFKSNAQLRELYLSSNFIHSLEGGLFQSLHHLEQLDLSKNRIGRLCDNPFEGLSRLTSLGFAENSLEEIPEKALEPLTSLNFIDLSQNNLALLPKTIEKLRALSTIVASRNHITRIDNISFKNLPKLSVLDLSTNEISNLPNGIFKQNNQLTKLDFFNNLLTQVEESVFPDVETLNLDVKFNQIKSVSPKVRALIGQHKLTPQKHIAKLEASLDGEKIKYHQAFSLLDLYYWEQKTNSAIDKELVSVEEYQQLLQEKGSDTVSLLNDMQVDWSIVIQLQKKASNGQYVTVDEKLLSNDPKDDLTGEFSLKDPGTYRIRKALITKKFATQKEHIYLTSNDILVAKGPHSHQKDLVENGLRALNQKQLRDGIYYLNASMLKTDLASESMSNKAINHRVTLVVKKGVSYLEVEFRGIKVGKMLGYLGELSYFVDGYQRDLAGKPVGRTKKAEVVSYFTDVTGLPLADRYGKNYPKVLRMKLIEQAKKDGLVPLQVFVPIMDAISKGSGLQTVFMRLDWASLTTEKAKVVKETNNPQENSHLTSTDQLKGPQNRQQEKTPTSPPSAATGIANLTDLLAKKATGQSTQETSKTDDTDKAEKLKQLVRDHQTSIEGKTAKDTKTKKSDKKHRSNQQSNGEESSSRYHLIAGLSSFMIVALGFIIGRKTLFK
modifications: holoShr (heme-bound), ferric hemoglobin (metHb)
Take B1: the Kd came out at 50 nM.
